# Values of other authors in article PMC5394133 (Clinical Drug Investigation, 2017).
# Where two headings read alike, the source gives them in different places.
# Settings: for Maximum concentration, mean / Total exposure, mean: total insulin concentration
Substance,"Maximum concentration, ratio thigh/abdomen (0.2 U/kg s.c.) [%]","Maximum concentration, ratio upper arm/abdomen (0.2 U/kg s.c.) [%]","Total exposure, ratio thigh/abdomen (0.2 U/kg s.c.) [%]","Total exposure, ratio upper arm/abdomen (0.2 U/kg s.c.) [%]","Maximum concentration, mean (0.2 U/kg s.c., abdomen) [pmol/L]","Total exposure, mean (0.2 U/kg s.c., abdomen) [nM·h]","Maximum concentration, mean (0.2 U/kg s.c., thigh) [pmol/L]","Total exposure, mean (0.2 U/kg s.c., thigh) [nM·h]","Maximum concentration, mean (0.2 U/kg s.c., upper arm) [pmol/L]","Total exposure, mean (0.2 U/kg s.c., upper arm) [nM·h]","Maximum concentration, ratio thigh/abdomen (s.c.) [%]","Maximum concentration, ratio upper arm/abdomen (s.c.) [%]","Total exposure, ratio thigh/abdomen (s.c.) [%]","Total exposure, ratio upper arm/abdomen (s.c.) [%]","early exposure within 1 h after administration, lower for the thigh than for the abdomen (s.c.)","early exposure within 1 h after administration, lower for the upper arm than for the abdomen (s.c.)"
Insulin aspart,84,101,97,105,501,1.3,422,1.265,506,1.361,,,,,,
Insulin glulisine,,,,,,,,,,,68,82,93,97,~ 40%,~ 20%
Insulin lispro,78,67,92,95,589,1.388,458,1.277,395,1.313,,,,,,
